Results published in patent publication US20250154240A1, “ANTI-HUMAN CXCL1 ANTIBODY” (CHIOME BIOSCIENCE INC., priority 2022, published 2025).

T1: human CXCL5 (Homo sapiens, UniProt P42830)
T1 sequence (P42830 37-114): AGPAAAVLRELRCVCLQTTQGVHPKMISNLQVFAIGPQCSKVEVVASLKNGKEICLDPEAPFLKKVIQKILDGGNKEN

B1: 5A-5E11: mouse monoclonal anti-HuCXCL1 antibody clone; VH SEQ ID NO: 17, VL SEQ ID NO: 21 (antibody, listed as Mus musculus, V domains shown)
VH: QVQLQQSGAELVRPGSSVKISCKASGYAFSDYWMNWVKQRPGQGLEWIGQIYPGDGDTNYNGKFKGKGTLTADKSSSTAYMQLNSLTSEDSAVYFCARERDYDVAMDYWGQGTSVTVSS
VL: DIQMTQSPSSLSASLGGKVTITCKASQDINKYIAWFQHKPGKGPRLVIHYTSILQPGIPSRFSGVGSGRDYSFSIRNLEPEDIATYYCLQYDNLPWTFGGGTKLEIK
B2: 1A-7H10: mouse monoclonal anti-HuCXCL1 antibody clone; VH SEQ ID NO: 1, VL SEQ ID NO: 5 (antibody, listed as Mus musculus, V domains shown)
VH: QVQLKESGPVLVAPSQSLSITCSVSGFSSTTYGVHWVRQPPGQGLEWLGVIWAGGSTNYNSALMSRLSISKDNSKSQVFLKMNSLQTDDTAMYYCATQYHYPFAYWGQGTLVTVSA
VL: NIVMTQSPKSMSMSVGERVTLSCKASENVGIYVSWYQQKPEQSPKLMIYGASNRNTGVPDRFTGSGSATDFTLTISSVQAEDLADYYCGQSYSYPLTFGAGTKLELK
B3: Hu5A-5E11: humanized antibody VH1/VL1; VH SEQ ID NO: 76, VL SEQ ID NO: 78 (antibody, V domains shown)
VH: QVQLVQSGAEVKKPGSSVKVSCKASGYAFSDYWMNWVRQAPGQGLEWIGQIYPGSGDTNYNAKFKGKGTITADKSTSTAYMELSSLRSEDTAVYYCARERDYDVAMDYWGQGTTVTVSS
VL: DIQMTQSPSSLSASVGDRVTITCKASQDINKYIAWFQQKPGKAPKLVIHYTSILQPGVPSRFSGSGSGTDYTFTISSLQPEDIATYYCLQYDNLPWTFGGGTKVEIK
B4: 028-8-12: human antibody against CXCL1 from the human ADLib technique; VH SEQ ID NO: 25, VL SEQ ID NO: 29 (antibody, listed as Gallus gallus, V domains shown)
VH: EVQLLESGGGLVQPGGSLRLSCAASGFTFSELSMSWVRQAPGKGLEWVSAISGSGGSTYYADSVKGRFTISRDNSKNTLYLQMNSLRAEDTAVYYCAREGGRLEPYYYYYAMDVWGQGTPVTVSS
VL: DIQMTQSPSSLSASVGDRVTITCRASQSISDNLHWYQQKPGKAPKLLIYDASNLESGVPSRFSGSGSGTDFTLTINSLQPEDFATYYCQQYYSTPLTFGQGTKLEIK
B5: 4A-2F7: mouse monoclonal anti-HuCXCL1 antibody clone; VH SEQ ID NO: 9, VL SEQ ID NO: 13 (antibody, listed as Mus musculus, V domains shown)
VH: QVTLKESGPGILKPSQTLSLTCSFSGFSLSTSGMGVDWIRQPSGKGLEWLAHIWWDDDKYYNPSLKSQLTISKDTSRNQVFLKITSVDTADTATYYCARSYGYDMDYYAMDYWGQGTSVTVSS
VL: DIQMTQSPSSLSASLGERVSLTCRASQEISGYLSWLQQKPDGTIKRLIYAASTLDSGVPKRFSGSRSGSDYSLTISSLESEDFADYYCLQYASYPPWTFGGGTKLEIK

What was measured:
[1] = test system: migration of HuCXCR2-expressing cells toward HuCXCL1; test: Migration assay (Boyden chamber chemotaxis) of HuCXCR2-expressing cells toward HuCXCL1; assay type: cell-based, human; conditions: HuCXCL1 200 ng per ml in lower chamber
Protocol: The 80 clones with neutralizing activity against HuCXCL1 were evaluated for their inhibitory activity against the migration of HuCXCR2-expressing cells toward HuCXCL1.
Cell chemotaxis was measured by Boyden chamber assay, and QCM Chemoraxis Cell Migration Assay (Sigma-Aldrich Corporation) was purchased and used as an assay kit. AequoScrenn/CXCR2 cells were used as HuCXCR2-expressing cells. An isotype control antibody and a goat anti-HuCXCL1 polyclonal antibody (hereinafter referred to as AF275) were purchased from R&D Systems and used.
The HuCXCR2-expressing cells were cultured overnight at 37° C. in a serum-free culture medium, and then suspended in the assay buffer and adjusted to 2×10^6 cells per ml. The upper chamber of a Boyden chamber was filled with the HuCXCR2-expressing cell suspension, while the lower chamber was filled with the assay buffer alone or a solution containing HuCXCL1 in an amount of 200 ng per ml with or without a purified antibody, followed by incubation overnight at 37° C.
After incubation, the upper chamber was washed with PBS, placed into a new lower chamber containing a Cell Detachment Solution (Sigma-Aldrich Corporation), and then allowed to stand at 37° C. for 30 minutes to detach the migrated cells adhered to the bottom of the membrane in the upper chamber.
The migrated cell suspension was supplemented with 4× Lysis Buffer (Sigma-Aldrich Corporation) in a volume of 75 μL per well and allowed to stand at room temperature for 20 minutes, followed by measurement of fluorescence at an excitation wavelength of 480 nm and a fluorescence wavelength of 520 nm. The above about 80 clones were screened and evaluated for their inhibitory activity against the migration of CXCR2 cells.

CyCXCL1 = CyCXCL1 binding activity ELISA; set-up: species or system cynomolgus monkey; conditions: absorbance to CyCXCL1 relative to absorbance to HuCXCL1
Protocol: Binding activity to cynomolgus monkey CXCL1 (CyCXCL1) was evaluated.
The same procedure as shown in [1-1] above was repeated to prepare a CyCXCL1 protein (antigen), except that the amino acid sequence of a HuCXCL1 protein was replaced with the amino acid sequence of a CyCXCL1 protein (Uniprot registration number: QUEAC3; SEQ ID NO: 82).
The evaluation of binding activity to CyCXCL1 was accomplished by ELISA assay. Absorbance was calculated in the same manner as shown in [2-1] above to evaluate antigen-binding activity, except that the protein immobilized on the plates was changed from a HuCXCL1 protein to a CyCXCL1 protein. An antibody whose absorbance to CyCXCL1 was 80% or more of its absorbance to HuCXCL1 was determined to have cross-reactivity and indicated with “o” while an antibody whose absorbance to CyCXCL1 was less than 80% of its absorbance to HuCXCL1 was indicated with “x” in Table A above.

[2] = test system: OCUM-12 gastric cancer cell line; test: Antitumor activity test, model with OCUM-12 orthotopic transplantation (prevention model); assay type: in vivo, mouse; conditions: for Antitumor activity (tumor growth, tumor size): 20 mg/kg intraperitoneally twice a week from the day following transplantation
Protocol: A model with OCUM-12 orthotopic transplantation was prepared to evaluate the above 4 types of candidate antibodies for their in vivo CXCR2 migration inhibitory activity and antitumor activity in a xenograft model with OCUM-12 orthotopic transplantation.
For use as mice, female nude mice (BALB/cAJcl-nu/nu) at 5 to 6 weeks of age were purchased from CLEA Japan, Inc., Japan. For use as human cancer cells, a gastric cancer cell line, OCUM-12, was provided by University Public Corporation Osaka, Japan.
OCUM-12 cells were cultured in D-MED medium (FUJIFILM Wako Pure Chemical Corporation, Japan) supplemented with 10% fetal bovine serum (FBS; Sigma-Aldrich Corporation) and 1/100 volumes of a penicillin-streptomycin mixture (Nacalai Tesque, Inc., Japan). The cells to be transplanted were detached with 0.25% trypsin/0.02% EDTA (Thermo Fisher Scientific) and washed with PBS, and 4× 10^5 cells per mouse were transplanted into the gastric wall of each mouse.
On the day following the above transplantation, the mice were randomized into groups (8 or 6 mice per group) and intraperitoneally administered with PBS as a control and with 4 types of candidate antibodies (1A-7H10, 4A-2F7, 5A-5E11 and 028-8-12) and 3 types of non-candidate antibodies (1A-3C6, 1A-2H3 and 4A-5B11) at a dose of 20 mg/kg. In addition, mouse IgG1 as a control was intraperitoneally administered at a dose of 20 mg/kg, and 3 types of antibodies (5A-5E11, 1A-4H10 and 4A-7G7) among the candidate antibodies were intraperitoneally administered at a dose of 20 mg/kg. The administration of these antibodies was then continued with a frequency of twice a week until the completion of the test. After 3 weeks had passed from the transplantation, the mice were sacrificed, and the short- and long-axis diameters of tumors formed in their gastric walls were each measured with a caliper. The tumor size was calculated according to the following: 1/2 short-axis diameter (mm)×1/2 long-axis diameter (mm)×3.14.
Navarixin is among small molecular compounds that act on CXCR2 and inhibit CXCL1-CXCR2 signaling. […] Then, using a model with OCUM-12 orthotopic transplantation, the migration inhibition of CXCR2-expressing cells and antitumor activity were evaluated in vivo for Navarixin. As a vehicle, ultrapure water containing 20% 2-hydroxypropyl-β-cyclodextrin (FUJIFILM Wako Pure Chemical Corporation, Japan) was used. Navarixin (MedChemExpress) was dissolved in ultrapure water containing 20% 2-hydroxypropyl-β-cyclodextrin, and orally administered at a dose of 100 mg/kg/day in a schedule of once a day for 5 consecutive days, followed by a 2-day withdrawal.
The humanized antibodies were evaluated for their in vivo antitumor activity and CXCR2 migration inhibitory activity in a xenograft model with OCUM-12 orthotopic transplantation. Procedures for the evaluation are shown below.
For use as mice, female nude mice (BALB/cAJcl-nu/nu) at 5 to 6 weeks of age were purchased from CLEA Japan, Inc., Japan. For use as human cancer cells, gastric cancer cell line, OCUM-12, was provided by Osaka Metropolitan University, Japan.
OCUM-12 cells were cultured in D-MED medium (FUJIFILM Wako Pure Chemical Corporation, Japan) supplemented with 10% fetal bovine serum (hereinafter abbreviated as FBS; Sigma-Aldrich Corporation) and 1/100 volumes of a penicillin-streptomycin mixture (Nacalai Tesque, Inc., Japan). The cells to be transplanted were detached with 0.25% trypsin/0.02% EDTA (Thermo Fisher Scientific) and washed with PBS, and 4×10^5 cells per mouse were transplanted into the gastric wall of each mouse. On the day following the transplantation, the mice were randomized into groups (8 mice per group) and intraperitoneally administered with test antibodies at a dose of 400 μg/head. PBS was intraperitoneally administered in a volume of 200 μL with a frequency of twice a week for 3 weeks, starting from the day following the transplantation. […]

human CXCL5 = target: T1, human CXCL5; test: Binding to human CXCL5

CyCXCL1, sequence (as listed by the source): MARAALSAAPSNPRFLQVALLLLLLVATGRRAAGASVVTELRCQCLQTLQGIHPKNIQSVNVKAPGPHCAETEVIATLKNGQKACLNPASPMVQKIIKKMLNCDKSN

Molecule	CXCR2-expressing cell migration inhibitory activity Chemotaxis assay [1]	Binding activity to CyCXCL1 ELISA (CyCXCL1)	Antitumor activity (tumor growth, tumor size) ([2]; 3 weeks, compared to PBS)	Binding to human CXCL5 (human CXCL5)	Antitumor activity (tumor area) ([2]; 400 μg/head intraperitoneally twice a week, 3 weeks, compared to hIgG1 antibody)	Dose significantly suppressing the tumor area ([2]; prevention model, compared to PBS) [μg/head]
B1	∘	∘	significantly suppress tumor growth	also bind	–	–
B2	∘	∘	significantly suppress tumor growth	–	–	–
B3	–	–	–	–	significantly suppress an increase in the tumor area	≥ 60
B4	∘	∘	significantly suppress tumor growth	–	–	–
B5	∘	∘	significantly suppress tumor growth	also bind	–	–
